Source: patent publication US20190194317A1 (FARON PHARMACEUTICALS, published 2019)

B1: Composite Human anti-CLEVER-1 antibody VH2/VK2 (antibody, human IgG4, V domains shown)
VH: QVTLKESGPTLVKPTQTLTLTCSFSGFSLSTSGMGIGWIRQPSGKALEWLAHIWWDDDKRYNPALKSRLTISKDTSKNQVVLTMTNMDPVDTATYYCARHYGYDPYYAMDYWGQGTLVTVSS
VL: QIVLTQSPGTLSLSPGERATMSCTASSSVSSSYLHWYQQKPGKAPKLCIYRTSNLASGVPSRFSGSGSGTDYTLTISSLQPEDFATYYCHQYHRSPPTFGQGTKLEIK
B2: Composite Human anti-CLEVER-1 antibody VH1/VK2 (antibody, human IgG4, V domains shown)
VH: QVTLKESGPTIVKPTQTLTLTCSFSGFSLNTSGMGIGWIRQPSGKALEWLAHIWWDDDKRYNPALKSRLTISKDTSKNQVVLTMTNMDPVDTATYYCARHYGYDPYYAMDYWGQGTSVTVSS
VL: QIVLTQSPGTLSLSPGERATMSCTASSSVSSSYLHWYQQKPGKAPKLCIYRTSNLASGVPSRFSGSGSGTDYTLTISSLQPEDFATYYCHQYHRSPPTFGQGTKLEIK
B3: Composite Human anti-CLEVER-1 antibody VH3/VK1 (antibody, human IgG4, V domains shown)
VH: QVTLKESGPTLVKPTQTLTLTCSFSGFSLSTSGMGIGWIRQPPGKALEWLAHIWWDDDKRYNPALKSRLTISKDTSKNQVVLTMTNMDPVDTATYYCARHYGYDPYYAMDYWGQGTLVTVSS
VL: QIVLTQSPGILSLSPGERATMSCTASSSVSSSYLHWYQQKPGKAPKLCIYRTSNLASGVPSRFSGSGSGTDYTLTISSLQAEDFATYYCHQYHRSPPTFGQGTKLEIK
B4: Composite Human anti-CLEVER-1 antibody VH2/VK5 (antibody, human IgG4, V domains shown)
VH: QVTLKESGPTLVKPTQTLTLTCSFSGFSLSTSGMGIGWIRQPSGKALEWLAHIWWDDDKRYNPALKSRLTISKDTSKNQVVLTMTNMDPVDTATYYCARHYGYDPYYAMDYWGQGTLVTVSS
VL: EIVLTQSPGTLSLSPGERATLSCTASSSVSSSYLHWYQQKPGKAPKLLIYRTSNLASGVPSRFSGSGSGTDYTLTISSLQPEDFATYYCHQYHRSPPTFGQGTKLEIK
notes: Named as a potential lead
B5: Composite Human anti-CLEVER-1 antibody VH1/VK1 (antibody, human IgG4, V domains shown)
VH: QVTLKESGPTIVKPTQTLTLTCSFSGFSLNTSGMGIGWIRQPSGKALEWLAHIWWDDDKRYNPALKSRLTISKDTSKNQVVLTMTNMDPVDTATYYCARHYGYDPYYAMDYWGQGTSVTVSS
VL: QIVLTQSPGILSLSPGERATMSCTASSSVSSSYLHWYQQKPGKAPKLCIYRTSNLASGVPSRFSGSGSGTDYTLTISSLQAEDFATYYCHQYHRSPPTFGQGTKLEIK
B6: Composite Human anti-CLEVER-1 antibody VH4/VK4 (antibody, human IgG4, V domains shown)
VH: QVTLKESGPTLVKPTQTLTLTCTFSGFSLSTSGMGIGWIRQPPGKALEWLAHIWWDDDKRYNPALKSRLTISKDTSKNQVVLTMTNMDPVDTATYYCARHYGYDPYYAMDYWGQGTLVTVSS
VL: QIVLTQSPGILSLSPGERATMSCTASSSVSSSYLHWYQQKPGKAPKLLIYRTSNLASGVPSRFSGSGSGTDYTLTISSLQAEDFATYYCHQYHRSPPTFGQGTKLEIK
B7: Composite Human anti-CLEVER-1 antibody VH2/VK3 (antibody, human IgG4, V domains shown)
VH: QVTLKESGPTLVKPTQTLTLTCSFSGFSLSTSGMGIGWIRQPSGKALEWLAHIWWDDDKRYNPALKSRLTISKDTSKNQVVLTMTNMDPVDTATYYCARHYGYDPYYAMDYWGQGTLVTVSS
VL: EIVLTQSPGTLSLSPGERATMSCTASSSVSSSYLHWYQQKPGKAPKLCIYRTSNLASGVPSRFSGSGSGTDYTLTISSLQPEDFATYYCHQYHRSPPTFGQGTKLEIK
B8: Composite Human anti-CLEVER-1 antibody VH4/VK5 (antibody, human IgG4, V domains shown)
VH: QVTLKESGPTLVKPTQTLTLTCTFSGFSLSTSGMGIGWIRQPPGKALEWLAHIWWDDDKRYNPALKSRLTISKDTSKNQVVLTMTNMDPVDTATYYCARHYGYDPYYAMDYWGQGTLVTVSS
VL: EIVLTQSPGTLSLSPGERATLSCTASSSVSSSYLHWYQQKPGKAPKLLIYRTSNLASGVPSRFSGSGSGTDYTLTISSLQPEDFATYYCHQYHRSPPTFGQGTKLEIK
notes: Named as a potential lead
B9: Composite Human anti-CLEVER-1 antibody VH2/VK1 (antibody, human IgG4, V domains shown)
VH: QVTLKESGPTLVKPTQTLTLTCSFSGFSLSTSGMGIGWIRQPSGKALEWLAHIWWDDDKRYNPALKSRLTISKDTSKNQVVLTMTNMDPVDTATYYCARHYGYDPYYAMDYWGQGTLVTVSS
VL: QIVLTQSPGILSLSPGERATMSCTASSSVSSSYLHWYQQKPGKAPKLCIYRTSNLASGVPSRFSGSGSGTDYTLTISSLQAEDFATYYCHQYHRSPPTFGQGTKLEIK
B10: Composite Human anti-CLEVER-1 antibody VH4/VK1 (antibody, human IgG4, V domains shown)
VH: QVTLKESGPTLVKPTQTLTLTCTFSGFSLSTSGMGIGWIRQPPGKALEWLAHIWWDDDKRYNPALKSRLTISKDTSKNQVVLTMTNMDPVDTATYYCARHYGYDPYYAMDYWGQGTLVTVSS
VL: QIVLTQSPGILSLSPGERATMSCTASSSVSSSYLHWYQQKPGKAPKLCIYRTSNLASGVPSRFSGSGSGTDYTLTISSLQAEDFATYYCHQYHRSPPTFGQGTKLEIK
B11: Composite Human anti-CLEVER-1 antibody VH1/VK3 (antibody, human IgG4, V domains shown)
VH: QVTLKESGPTIVKPTQTLTLTCSFSGFSLNTSGMGIGWIRQPSGKALEWLAHIWWDDDKRYNPALKSRLTISKDTSKNQVVLTMTNMDPVDTATYYCARHYGYDPYYAMDYWGQGTSVTVSS
VL: EIVLTQSPGTLSLSPGERATMSCTASSSVSSSYLHWYQQKPGKAPKLCIYRTSNLASGVPSRFSGSGSGTDYTLTISSLQPEDFATYYCHQYHRSPPTFGQGTKLEIK
B12: Composite Human anti-CLEVER-1 antibody VH3/VK2 (antibody, human IgG4, V domains shown)
VH: QVTLKESGPTLVKPTQTLTLTCSFSGFSLSTSGMGIGWIRQPPGKALEWLAHIWWDDDKRYNPALKSRLTISKDTSKNQVVLTMTNMDPVDTATYYCARHYGYDPYYAMDYWGQGTLVTVSS
VL: QIVLTQSPGTLSLSPGERATMSCTASSSVSSSYLHWYQQKPGKAPKLCIYRTSNLASGVPSRFSGSGSGTDYTLTISSLQPEDFATYYCHQYHRSPPTFGQGTKLEIK
B13: Composite Human anti-CLEVER-1 antibody VH1/VK4 (antibody, human IgG4, V domains shown)
VH: QVTLKESGPTIVKPTQTLTLTCSFSGFSLNTSGMGIGWIRQPSGKALEWLAHIWWDDDKRYNPALKSRLTISKDTSKNQVVLTMTNMDPVDTATYYCARHYGYDPYYAMDYWGQGTSVTVSS
VL: QIVLTQSPGILSLSPGERATMSCTASSSVSSSYLHWYQQKPGKAPKLLIYRTSNLASGVPSRFSGSGSGTDYTLTISSLQAEDFATYYCHQYHRSPPTFGQGTKLEIK
B14: Composite Human anti-CLEVER-1 antibody VH4/VK2 (antibody, human IgG4, V domains shown)
VH: QVTLKESGPTLVKPTQTLTLTCTFSGFSLSTSGMGIGWIRQPPGKALEWLAHIWWDDDKRYNPALKSRLTISKDTSKNQVVLTMTNMDPVDTATYYCARHYGYDPYYAMDYWGQGTLVTVSS
VL: QIVLTQSPGTLSLSPGERATMSCTASSSVSSSYLHWYQQKPGKAPKLCIYRTSNLASGVPSRFSGSGSGTDYTLTISSLQPEDFATYYCHQYHRSPPTFGQGTKLEIK
B15: Composite Human anti-CLEVER-1 antibody VH3/VK4 (antibody, human IgG4, V domains shown)
VH: QVTLKESGPTLVKPTQTLTLTCSFSGFSLSTSGMGIGWIRQPPGKALEWLAHIWWDDDKRYNPALKSRLTISKDTSKNQVVLTMTNMDPVDTATYYCARHYGYDPYYAMDYWGQGTLVTVSS
VL: QIVLTQSPGILSLSPGERATMSCTASSSVSSSYLHWYQQKPGKAPKLLIYRTSNLASGVPSRFSGSGSGTDYTLTISSLQAEDFATYYCHQYHRSPPTFGQGTKLEIK
B16: Composite Human anti-CLEVER-1 antibody VH1/VK5 (antibody, human IgG4, V domains shown)
VH: QVTLKESGPTIVKPTQTLTLTCSFSGFSLNTSGMGIGWIRQPSGKALEWLAHIWWDDDKRYNPALKSRLTISKDTSKNQVVLTMTNMDPVDTATYYCARHYGYDPYYAMDYWGQGTSVTVSS
VL: EIVLTQSPGTLSLSPGERATLSCTASSSVSSSYLHWYQQKPGKAPKLLIYRTSNLASGVPSRFSGSGSGTDYTLTISSLQPEDFATYYCHQYHRSPPTFGQGTKLEIK
B17: Composite Human anti-CLEVER-1 antibody VH2/VK4 (antibody, human IgG4, V domains shown)
VH: QVTLKESGPTLVKPTQTLTLTCSFSGFSLSTSGMGIGWIRQPSGKALEWLAHIWWDDDKRYNPALKSRLTISKDTSKNQVVLTMTNMDPVDTATYYCARHYGYDPYYAMDYWGQGTLVTVSS
VL: QIVLTQSPGILSLSPGERATMSCTASSSVSSSYLHWYQQKPGKAPKLLIYRTSNLASGVPSRFSGSGSGTDYTLTISSLQAEDFATYYCHQYHRSPPTFGQGTKLEIK

Molecular target: T1, CLEVER-1 coated on the ELISA plate (competition ELISA, Examples 5 and 10) (human, UniProt Q9NY15 26-1027, limits assumed)
T1 construct: Coated at 1 ug/ml in PBS; also called human Clever-1
T1 sequence (looked up): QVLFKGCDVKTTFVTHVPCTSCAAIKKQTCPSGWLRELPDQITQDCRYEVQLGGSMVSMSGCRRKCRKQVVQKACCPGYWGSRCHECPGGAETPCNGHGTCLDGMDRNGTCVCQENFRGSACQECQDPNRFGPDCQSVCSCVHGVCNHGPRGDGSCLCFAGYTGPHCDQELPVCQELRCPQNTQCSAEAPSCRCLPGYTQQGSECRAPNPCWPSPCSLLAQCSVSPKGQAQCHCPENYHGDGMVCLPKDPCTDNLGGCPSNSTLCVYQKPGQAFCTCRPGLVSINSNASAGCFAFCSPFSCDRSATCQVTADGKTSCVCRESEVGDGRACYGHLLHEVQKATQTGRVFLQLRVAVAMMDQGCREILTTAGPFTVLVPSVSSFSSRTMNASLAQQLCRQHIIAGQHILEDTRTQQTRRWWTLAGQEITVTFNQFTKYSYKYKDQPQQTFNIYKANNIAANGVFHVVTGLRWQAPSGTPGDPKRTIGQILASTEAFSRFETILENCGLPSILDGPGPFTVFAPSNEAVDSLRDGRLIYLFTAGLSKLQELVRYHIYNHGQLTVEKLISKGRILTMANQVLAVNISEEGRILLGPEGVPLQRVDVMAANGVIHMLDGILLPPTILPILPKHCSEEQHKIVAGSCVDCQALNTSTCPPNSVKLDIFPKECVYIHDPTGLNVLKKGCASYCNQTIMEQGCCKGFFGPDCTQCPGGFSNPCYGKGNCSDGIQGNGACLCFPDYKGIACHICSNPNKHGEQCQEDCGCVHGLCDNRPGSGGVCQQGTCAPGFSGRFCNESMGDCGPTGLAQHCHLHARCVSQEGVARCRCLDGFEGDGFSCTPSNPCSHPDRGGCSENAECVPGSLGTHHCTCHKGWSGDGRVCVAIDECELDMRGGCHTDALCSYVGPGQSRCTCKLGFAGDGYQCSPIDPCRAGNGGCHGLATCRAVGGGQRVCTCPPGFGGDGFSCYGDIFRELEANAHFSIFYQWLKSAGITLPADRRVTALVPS
Experiment: competition ELISA on coated CLEVER-1 against biotinylated mouse 3-372
Method: These were incubated for 1 hour at room temperature on a 96 well Immulon maxisorp plate (Fisher Cat. No. DIS-971-030J) precoated with 1 μg/ml CLEVER-1. […] The reaction was stopped with 3M HCl, absorbance read at 450 nm on a Dynex Technologies MRX TC II plate reader and the binding curves plotted. IC50 values for each antibody were calculated and these were normalized to the IC50 of the chimera which was included on each respective ELISA plate.

| Binder | Relative IC50 |
| --- | --- |
| B1 | 0.95 relative to the chimera on the same plate |
| B2 | 1.37 relative to the chimera on the same plate |
| B3 | 0.76 relative to the chimera on the same plate |
| B4 | 0.52 relative to the chimera on the same plate |
| B5 | 0.84 relative to the chimera on the same plate |
| B6 | 1.2 relative to the chimera on the same plate |
| B7 | 0.7 relative to the chimera on the same plate |
| B8 | 0.46 relative to the chimera on the same plate |
| B9 | 0.82 relative to the chimera on the same plate |
| B10 | 1.86 relative to the chimera on the same plate |
| B11 | 1.63 relative to the chimera on the same plate |
| B12 | 0.51 relative to the chimera on the same plate |
| B13 | 1.17 relative to the chimera on the same plate |
| B14 | 0.9 relative to the chimera on the same plate |
| B15 | 0.47 relative to the chimera on the same plate |
| B16 | 1.13 relative to the chimera on the same plate |
| B17 | 0.79 relative to the chimera on the same plate |
